Experimental data: the RNAGym collection of RNA variant scans (doi:10.7554/elife.80360)

B1: Hairpin Ribozyme (parent)
chain: GUCCUCUUUCACGUGCGCGUGAAAGAGAGAAGUGAACCAGAGAAACACACGUUGUGGUAUAUUACCUGGUA

Variants of: B1
Assay: self-cleavage, relative activity (ratio to wild type); higher = more cleavage; co-transcriptional

Variant	self-cleavage
GUCAUCUUUCACGUGCGCGUGAAACAGAGAAGUGAACCAGAGAAACACACGUUGUGGUAUAUUACCUGGUA [C4A G25C]	0.153
GUCAUCUUUCAUGUGCGCGUGAAAGAGAGAAGUGAACCAGAGAAACACACGUUGUGGUAUAUUACCUGGUA [C4A C12U]	0.319
GUCAUCUAUCACGUGCGCGUGAAAGAGAGAAGUGAACCAGAGAAACACACGUUGUGGUAUAUUACCUGGUA [C4A U8A]	0.16
GUCAUCUCUCACGUGCGCGUGAAAGAGAGAAGUGAACCAGAGAAACACACGUUGUGGUAUAUUACCUGGUA [C4A U8C]	0.113
GUCAUCUUUCACGUGCGCUUGAAAGAGAGAAGUGAACCAGAGAAACACACGUUGUGGUAUAUUACCUGGUA [C4A G19U]	0.221
GUCAUCUUUCACGUGCGCGUGAAAGAGAGAAGCGAACCAGAGAAACACACGUUGUGGUAUAUUACCUGGUA [C4A U33C]	0.132
GUCAUCUUUCACGUGCGCGUGAAAGAGAGAAGAGAACCAGAGAAACACACGUUGUGGUAUAUUACCUGGUA [C4A U33A]	0.174
GUCGUCUUUCACGUGCGCGUGAAAGAGAGAAGUGAACCAGAGAAACACACGUUGUGGUAUAUUGCCUGGUA [C4G A64G]	0.124
GUCGUCUUUCACGUGCGCGUGAAAGAGAGAAGUGAACCAGAGAAACACACGUUGUGGUAUAUUUCCUGGUA [C4G A64U]	0.142
GUCAUAUUUCACGUGCGCGUGAAAGAGAGAAGUGAACCAGAGAAACACACGUUGUGGUAUAUUACCUGGUA [C4A C6A]	0.166
GUCGUCUUUCACGUGCGCGUGAAAGAGAGAAGUGAACCAGGGAAACACACGUUGUGGUAUAUUACCUGGUA [C4G A41G]	0.219
GUCGUCUUUCACGUGCGCGUGAAAGAGAGAAGUGGACCAGAGAAACACACGUUGUGGUAUAUUACCUGGUA [C4G A35G]	0.153
GUCAUCUUUCACGUGCGCGUGAAAGAGAGAAGUGAACAAGAGAAACACACGUUGUGGUAUAUUACCUGGUA [C4A C38A]	0.104
GUCAUCUUUCACGUGCGCGUGAAAGAGAGAAGUGAACGAGAGAAACACACGUUGUGGUAUAUUACCUGGUA [C4A C38G]	0.175
GUCAUCUUUCACGUGCGCGUGAAAGAGAGAAGUGAACCAGAGAAACACAUGUUGUGGUAUAUUACCUGGUA [C4A C50U]	0.13
GUCAUCUUUCACUUGCGCGUGAAAGAGAGAAGUGAACCAGAGAAACACACGUUGUGGUAUAUUACCUGGUA [C4A G13U]	0.248
GUCGUCUUUCACGUGCGCGUGAAGGAGAGAAGUGAACCAGAGAAACACACGUUGUGGUAUAUUACCUGGUA [C4G A24G]	0.256
GUCGUCUUUCACGUGCGCGUGAACGAGAGAAGUGAACCAGAGAAACACACGUUGUGGUAUAUUACCUGGUA [C4G A24C]	0.177
GUCGUCUUUCACGUGCGCGUGAAUGAGAGAAGUGAACCAGAGAAACACACGUUGUGGUAUAUUACCUGGUA [C4G A24U]	0.183
GUCGUCUUUCACGUGCGCGUGAAAGAGAGAAGUGAACCAGAGAACCACACGUUGUGGUAUAUUACCUGGUA [C4G A45C]	0.0824
GUCGUCUUUCACGUGCGCGUGAAAGAGAGUAGUGAACCAGAGAAACACACGUUGUGGUAUAUUACCUGGUA [C4G A30U]	0.175
GUCGUCUUUCACGUGCGCGUGAAAGAGAGCAGUGAACCAGAGAAACACACGUUGUGGUAUAUUACCUGGUA [C4G A30C]	0.178
GUCGUCUUUCACGUGCGCGUGAAAGAGAGAAGUGAACCCGAGAAACACACGUUGUGGUAUAUUACCUGGUA [C4G A39C]	0.193
GUCGUCUUUCACGUGCGCGUGAAAGAGAGAAGUGAACCGGAGAAACACACGUUGUGGUAUAUUACCUGGUA [C4G A39G]	0.0945
GUCGUCUUUCACGUGCGCGUGAAAGUGAGAAGUGAACCAGAGAAACACACGUUGUGGUAUAUUACCUGGUA [C4G A26U]	0.204
GUCAUCUUUCACGUGCGCGUGAAAGAGAGAAGUGAACCAGAGAACCACACGUUGUGGUAUAUUACCUGGUA [C4A A45C]	0.167

Variant	self-cleavage
GUCAUCUUUCACGUGCGCGUGAAAGAGAGAAGUGAACCAGAGAAACACACGAUGUGGUAUAUUACCUGGUA [C4A U52A]	0.206
GUCAUCUUUCACGUGCGCGUGAAAGAGAGAAGUGAACCAGAGAAACACACGUGGUGGUAUAUUACCUGGUA [C4A U53G]	0.27
GUCGUCUUUCACGUGCGCGUGAAAGAGAGAAGUGAACCAGAGAAACACUCGUUGUGGUAUAUUACCUGGUA [C4G A49U]	0.183
GUCGUCUUUCACGUGCGCGUGAAAGAGAGAAGUGAACCAGAGAAACACGCGUUGUGGUAUAUUACCUGGUA [C4G A49G]	0.101
GUCAUCUUUCACGUGCGCGUAAAAGAGAGAAGUGAACCAGAGAAACACACGUUGUGGUAUAUUACCUGGUA [C4A G21A]	0.165
GUCAUCUUUCACGUGCGCGUGAAAGAGAGAAGUGAACCAGAGUAACACACGUUGUGGUAUAUUACCUGGUA [C4A A43U]	0.184
GUCGUCUUUCACGUGCGCGUGAAAGAGGGAAGUGAACCAGAGAAACACACGUUGUGGUAUAUUACCUGGUA [C4G A28G]	0.443
GUCGUCUUUCACGUGCGCGUGAAAGAGUGAAGUGAACCAGAGAAACACACGUUGUGGUAUAUUACCUGGUA [C4G A28U]	0.0783
GUCAUCCUUCACGUGCGCGUGAAAGAGAGAAGUGAACCAGAGAAACACACGUUGUGGUAUAUUACCUGGUA [C4A U7C]	0.147
GUCAUCAUUCACGUGCGCGUGAAAGAGAGAAGUGAACCAGAGAAACACACGUUGUGGUAUAUUACCUGGUA [C4A U7A]	0.175
GUCAUCUUUCACGUGCGCGUGAAAGAGAGAAGUGAACCUGAGAAACACACGUUGUGGUAUAUUACCUGGUA [C4A A39U]	0.0907
GUCAUCUUUCACGUGCGCGUGAAAGAGAGAAGUGAACCAGAGAAACACACUUUGUGGUAUAUUACCUGGUA [C4A G51U]	0.148
GUCAUCUUUCACGUGCGCGUGAAAGAGAGAAGUGAACCAGAGAAACACACAUUGUGGUAUAUUACCUGGUA [C4A G51A]	0.232
GUCAUCUUUCACGUGCGCGUGAAAGAGAGAAGUGAGCCAGAGAAACACACGUUGUGGUAUAUUACCUGGUA [C4A A36G]	0.198
GUCAUCUUUCACGUGCGCGUGAAAGAGAGAAGUGAACCAGAGAAACACACGUUGUGGGAUAUUACCUGGUA [C4A U58G]	0.183
GUCAUCUUUCACGUGCGCGUGAAAGAGAGAAGUGAACCAGAGAAACACACGUUGUGGAAUAUUACCUGGUA [C4A U58A]	0.113
GUCAUCUUUCACGUGCGCGUGAAAGAGAUAAGUGAACCAGAGAAACACACGUUGUGGUAUAUUACCUGGUA [C4A G29U]	0.111
GUCAUCUUUCACGUGCGCGUGAAAGAGACAAGUGAACCAGAGAAACACACGUUGUGGUAUAUUACCUGGUA [C4A G29C]	0.118
GUCAUCUUUCACGUGCGCGUGAAAGAGAGAAGUGAACCAGAGAAACACACGUUGUGGUAUAUUACCUGGUU [C4A A71U]	0.138
GUCAUCUUUCACGUGCGCGUGAAAGAGAGAAGUGAACCAGAGAAACACACGUUGUGGUAUAUUACCUGCUA [C4A G69C]	0.156
GUCAUCUUUCACGUGCGCGUGAAAGAGAGAAGUUAACCAGAGAAACACACGUUGUGGUAUAUUACCUGGUA [C4A G34U]	1.01
GUCAUCUUUCACGUGCGCGUGAAAGAGAGAAGUGAACCAGAGAAACACACGUUGUCGUAUAUUACCUGGUA [C4A G56C]	0.157
GUCAUCUUUCACGUGCGCGUGAAAGAGAGAAGUGAACCAGAUAAACACACGUUGUGGUAUAUUACCUGGUA [C4A G42U]	0.115
GUCAUCUUCCACGUGCGCGUGAAAGAGAGAAGUGAACCAGAGAAACACACGUUGUGGUAUAUUACCUGGUA [C4A U9C]	0.163
GUCAUCUUGCACGUGCGCGUGAAAGAGAGAAGUGAACCAGAGAAACACACGUUGUGGUAUAUUACCUGGUA [C4A U9G]	0.151
GUCGUCUUUCACGUGCGCGUGAAAGAGAGAAGUGAACCAGAGGAACACACGUUGUGGUAUAUUACCUGGUA [C4G A43G]	0.121

Variant	self-cleavage
GUCAUCUUUCACGUGAGCGUGAAAGAGAGAAGUGAACCAGAGAAACACACGUUGUGGUAUAUUACCUGGUA [C4A C16A]	0.202
GUCAUCUUUCACGUGCGCGCGAAAGAGAGAAGUGAACCAGAGAAACACACGUUGUGGUAUAUUACCUGGUA [C4A U20C]	0.267
GUCGUCUUUCACGUGCGCGUGAAAGAGAGAAGUGAACCAGAGAGACACACGUUGUGGUAUAUUACCUGGUA [C4G A44G]	0.0493
GUCGUCUUUCACGUGCGCGUGAAAGAGAGAAGUGAACCAGAGAUACACACGUUGUGGUAUAUUACCUGGUA [C4G A44U]	0.164
GUCAUCUUUCACGUGCGCGUGAAAGAGAGAAGUGAACCAGUGAAACACACGUUGUGGUAUAUUACCUGGUA [C4A A41U]	0.504
GUCAUCUUUCACGUGCGCGUGAAAGAGAGAAGUGAACCAGCGAAACACACGUUGUGGUAUAUUACCUGGUA [C4A A41C]	0.322
GUCGUCUUUCACGUGCGCGUGAAAGAGAGAAGUGAUCCAGAGAAACACACGUUGUGGUAUAUUACCUGGUA [C4G A36U]	0.118
GUCGUCUUUCACGUGCGCGUGAAAGAGAGAAGUGACCCAGAGAAACACACGUUGUGGUAUAUUACCUGGUA [C4G A36C]	0.103
GUCGUCUUUCACGUGCGCGUGCAAGAGAGAAGUGAACCAGAGAAACACACGUUGUGGUAUAUUACCUGGUA [C4G A22C]	0.206
GUCGUCUUUCACGUGCGCGUGAAAGAGAGACGUGAACCAGAGAAACACACGUUGUGGUAUAUUACCUGGUA [C4G A31C]	0.176
GUCGUCUUUCACGUGCGCGUGAAAGAGAGAUGUGAACCAGAGAAACACACGUUGUGGUAUAUUACCUGGUA [C4G A31U]	0.183
GUCAUCUUUCACGUGCGCGUGAAAGAGAGAAGUGAACCAGAGAAACACACGUUGUGGUAUAUUAACUGGUA [C4A C65A]	0.148
GUCGUGUUUCACGUGCGCGUGAAAGAGAGAAGUGAACCAGAGAAACACACGUUGUGGUAUAUUACCUGGUA [C4G C6G]	0.17
GUCAUCUUUCACGUGCGCGUGAAAGAGAGAAGUGAACCAGAGAAACGCACGUUGUGGUAUAUUACCUGGUA [C4A A47G]	0.188
GUCAUCUUUCACGUGCGCGUGAAAGAGAGAAGUGAACCAGAGAAACCCACGUUGUGGUAUAUUACCUGGUA [C4A A47C]	0.205
GUCAUCUUUCACGUGCUCGUGAAAGAGAGAAGUGAACCAGAGAAACACACGUUGUGGUAUAUUACCUGGUA [C4A G17U]	0.148
GUCAUCUUUCACGUGCGCGUGAAAGAGAGAAGUGAACCAGAGAAACAAACGUUGUGGUAUAUUACCUGGUA [C4A C48A]	0.131
GUCGUCUUUCACGUGCGCGUGAAAGAGAGAAGUGAACCAGAGAAACGCACGUUGUGGUAUAUUACCUGGUA [C4G A47G]	0.168
GUCAUCUUUCACGUGCGAGUGAAAGAGAGAAGUGAACCAGAGAAACACACGUUGUGGUAUAUUACCUGGUA [C4A C18A]	0.13
GUCAUCUUUCACGUGCGCGUGAAAGAGAGAAGUGAACCAGAGAAACACACGUUGUGGUAUAUUACCUUGUA [C4A G68U]	0.111
GUCAUCUUUCACGUGCGCGUGAAAGAGAGAAGUGAACCAGAGAAAGACACGUUGUGGUAUAUUACCUGGUA [C4A C46G]	0.165
GUCAUCUUUCACGUGCGCGUGAAAGAGAGAAGUGAACCAGAGAAAUACACGUUGUGGUAUAUUACCUGGUA [C4A C46U]	0.17
GUCAUCUUUCACGUGCGCGUGAAAGAGAGAAGUGAACCAGAGAAACACACGUUGUGGUAUAUUUCCUGGUA [C4A A64U]	0.0608
GUCAUCUUUCACGUGCGCGUGAAAGAGAGAAGUGAACCAGAGAAACACACGUUGUGGUAUAUUCCCUGGUA [C4A A64C]	0.156
